According to paper PMC10397247:
Blank lines part the entries; values can stand above or below the binder they belong to.

Tests used:
4H3915-AA = molecular target: T1, 4H3915-AA; test: two-hybrid library CCmax;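 note: natural log of median RNA to DNA barcode read ratio; higher means stronger binding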
T1 chain: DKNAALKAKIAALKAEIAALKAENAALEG

4H3974-AA = molecular target: T2, 4H3974-AA; test: two-hybrid library CCmax; settings: mean of both orientations;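 note: natural log of median RNA to DNA barcode read ratio; higher means stronger binding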
T2 chain: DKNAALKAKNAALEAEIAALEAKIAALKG

4H432-AA = molecular target: T3, 4H432-AA; test: two-hybrid library CCmax; settings: mean of both orientations;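 note: natural log of median RNA to DNA barcode read ratio; higher means stronger binding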
T3 chain: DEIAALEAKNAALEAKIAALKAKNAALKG

4H446-AA = molecular target: T4, 4H446-AA; test: two-hybrid library CCmax; settings: mean of both orientations;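 note: natural log of median RNA to DNA barcode read ratio; higher means stronger binding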
T4 chain: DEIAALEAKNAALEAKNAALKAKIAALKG

4H63-AA = molecular target: T5, 4H63-AA; test: two-hybrid library CCmax; settings: mean of both orientations;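 note: natural log of median RNA to DNA barcode read ratio; higher means stronger binding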
T5 chain: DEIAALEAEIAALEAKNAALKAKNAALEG

APC9182-AA = molecular target: T6, APC9182-AA; test: two-hybrid library CCmax;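 note: natural log of median RNA to DNA barcode read ratio; higher means stronger binding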
T6 chain: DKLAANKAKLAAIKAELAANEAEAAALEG

APC9291-AA = molecular target: T7, APC9291-AA; test: two-hybrid library CCmax; settings: mean of both orientations
T7 chain: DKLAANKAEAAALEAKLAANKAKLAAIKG

APC9806-AA = molecular target: T8, APC9806-AA; test: two-hybrid library CCmax; settings: mean of both orientations
T8 chain: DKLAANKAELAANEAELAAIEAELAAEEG

4H908-bH = molecular target: T9, 4H908-bH; test: two-hybrid library CCNG1
T9 chain: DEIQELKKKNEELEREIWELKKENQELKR

4H918-bH = molecular target: T10, 4H918-bH; test: two-hybrid library CCNG1
T10 chain: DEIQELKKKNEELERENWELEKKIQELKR

4H953-bH = molecular target: T11, 4H953-bH; test: two-hybrid library CCNG1
T11 chain: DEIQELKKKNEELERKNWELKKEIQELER

4H967-bH = molecular target: T12, 4H967-bH; test: two-hybrid library CCNG1
T12 chain: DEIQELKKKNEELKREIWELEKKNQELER

4H464-AA = molecular target: T13, 4H464-AA; test: two-hybrid library CCmax
T13 chain: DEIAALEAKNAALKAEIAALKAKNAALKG

4H483-AA = molecular target: T14, 4H483-AA; test: two-hybrid library CCmax; settings: mean of both orientations
T14 chain: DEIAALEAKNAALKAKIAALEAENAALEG

4H3631-AA = molecular target: T15, 4H3631-AA; test: two-hybrid library CCmax
T15 chain: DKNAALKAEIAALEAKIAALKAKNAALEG

4H3697-AA = molecular target: T16, 4H3697-AA; test: two-hybrid library CCmax; settings: mean of both orientations
T16 chain: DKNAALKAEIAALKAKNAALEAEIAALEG

4H3718-AA = molecular target: T17, 4H3718-AA; test: two-hybrid library CCmax; settings: mean of both orientations
T17 chain: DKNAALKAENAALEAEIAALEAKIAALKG

4H384-AA = molecular target: T18, 4H384-AA; test: two-hybrid library CCmax; settings: mean of both orientations
T18 chain: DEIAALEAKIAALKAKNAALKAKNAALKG

4H3865-AA = molecular target: T19, 4H3865-AA; test: two-hybrid library CCmax; settings: mean of both orientations
T19 chain: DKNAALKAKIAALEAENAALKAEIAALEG

4H697-AA = molecular target: T20, 4H697-AA; test: two-hybrid library CCmax; settings: mean of both orientations
T20 chain: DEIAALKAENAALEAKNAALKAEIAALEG

4H982-AA = molecular target: T21, 4H982-AA; test: two-hybrid library CCmax; settings: mean of both orientations
T21 chain: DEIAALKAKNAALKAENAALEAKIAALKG

4H883-bH = molecular target: T22, 4H883-bH; test: two-hybrid library CCNG1
T22 chain: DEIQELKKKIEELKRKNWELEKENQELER

interaction score (4H3915-AA): -0.838
interaction score (4H3974-AA): -0.146
interaction score (4H432-AA): -1.16
interaction score (4H446-AA): -1.7
interaction score (4H63-AA): 0.485
B1: 4H3915-AA (peptide)
chain: DKNAALKAKIAALKAEIAALKAENAALEG

interaction score (APC9182-AA): -1.77
interaction score (APC9291-AA): -1.98
interaction score (APC9806-AA): -1.59
B2: APC9182-AA (peptide)
chain: DKLAANKAKLAAIKAELAANEAEAAALEG

The remaining lines, values behind:

B3: 4H908-bH (peptide)
chain: DEIQELKKKNEELEREIWELKKENQELKR
interaction score (4H908-bH): 0.057
interaction score (4H918-bH): -2.03
interaction score (4H953-bH): -0.842
interaction score (4H967-bH): -0.426

B4: 4H464-AA (peptide)
chain: DEIAALEAKNAALKAEIAALKAKNAALKG
interaction score (4H464-AA): -1.22
interaction score (4H483-AA): -0.618
interaction score (4H63-AA): -1.22

B5: 4H3631-AA (peptide)
chain: DKNAALKAEIAALEAKIAALKAKNAALEG
interaction score (4H3631-AA): 0.402
interaction score (4H3697-AA): -1.62
interaction score (4H3718-AA): 0.0628
interaction score (4H384-AA): -1.07
interaction score (4H3865-AA): -1.53
interaction score (4H697-AA): -1.8
interaction score (4H982-AA): -1.91

B6: 4H883-bH (peptide)
chain: DEIQELKKKIEELKRKNWELEKENQELER
interaction score (4H883-bH): 0.33
interaction score (4H908-bH): -0.306
interaction score (4H918-bH): -0.51
interaction score (4H953-bH): -0.831
interaction score (4H967-bH): -0.709
